This experiment concerns the target WDR5-Luc-FKBP12.

From publication PMC11623929 come the findings set out here.

Substance VHL-FRB (from UniProt P42345 2019-2112) displayed a decrease of luciferase activity of the WDR5 fusion in HEK293 cells, rapamycin overnight, 10- or 100-fold excess of the VHL-FRB plasmid (bridged by rapamycin) of 50.2%.
